Experimental data: patent US20180305699A1 (UNIVERSITY OF CHICAGO, published 2018)

Tests used:
[1] = target: T1, methionyl-tRNA synthetase (Mes1) (S. cerevisiae, UniProt P00958 2-751, limits assumed); assay: co-elution on Superdex200 gel filtration, western blot of fractions (AME complex of Arc1, Mes1 and Gus1)
T1 construct: Component of the purified AME complex; also called YGR264C
T1 sequence: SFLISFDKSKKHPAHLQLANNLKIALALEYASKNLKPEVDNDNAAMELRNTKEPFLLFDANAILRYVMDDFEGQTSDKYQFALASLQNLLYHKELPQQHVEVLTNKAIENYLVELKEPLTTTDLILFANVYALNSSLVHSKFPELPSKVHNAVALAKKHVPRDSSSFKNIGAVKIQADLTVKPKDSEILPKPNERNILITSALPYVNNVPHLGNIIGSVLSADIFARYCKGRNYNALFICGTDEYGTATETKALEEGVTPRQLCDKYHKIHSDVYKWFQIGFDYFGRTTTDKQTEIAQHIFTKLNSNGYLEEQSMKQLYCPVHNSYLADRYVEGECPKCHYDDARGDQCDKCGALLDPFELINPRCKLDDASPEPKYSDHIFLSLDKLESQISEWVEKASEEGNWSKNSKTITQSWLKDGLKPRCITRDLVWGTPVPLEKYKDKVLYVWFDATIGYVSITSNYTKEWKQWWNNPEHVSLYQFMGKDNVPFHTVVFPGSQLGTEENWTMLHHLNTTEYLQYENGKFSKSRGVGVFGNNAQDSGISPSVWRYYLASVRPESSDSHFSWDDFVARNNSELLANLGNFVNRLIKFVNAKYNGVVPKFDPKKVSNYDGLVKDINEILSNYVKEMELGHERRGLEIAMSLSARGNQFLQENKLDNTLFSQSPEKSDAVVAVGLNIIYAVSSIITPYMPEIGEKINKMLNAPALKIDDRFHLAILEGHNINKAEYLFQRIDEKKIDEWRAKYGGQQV

[2] = target: T2, glutamyl-tRNA synthetase (Gus1) (S. cerevisiae, UniProt P46655 1-708); assay: as above
T2 construct: Component of the purified AME complex; also called YGL245W
T2 sequence: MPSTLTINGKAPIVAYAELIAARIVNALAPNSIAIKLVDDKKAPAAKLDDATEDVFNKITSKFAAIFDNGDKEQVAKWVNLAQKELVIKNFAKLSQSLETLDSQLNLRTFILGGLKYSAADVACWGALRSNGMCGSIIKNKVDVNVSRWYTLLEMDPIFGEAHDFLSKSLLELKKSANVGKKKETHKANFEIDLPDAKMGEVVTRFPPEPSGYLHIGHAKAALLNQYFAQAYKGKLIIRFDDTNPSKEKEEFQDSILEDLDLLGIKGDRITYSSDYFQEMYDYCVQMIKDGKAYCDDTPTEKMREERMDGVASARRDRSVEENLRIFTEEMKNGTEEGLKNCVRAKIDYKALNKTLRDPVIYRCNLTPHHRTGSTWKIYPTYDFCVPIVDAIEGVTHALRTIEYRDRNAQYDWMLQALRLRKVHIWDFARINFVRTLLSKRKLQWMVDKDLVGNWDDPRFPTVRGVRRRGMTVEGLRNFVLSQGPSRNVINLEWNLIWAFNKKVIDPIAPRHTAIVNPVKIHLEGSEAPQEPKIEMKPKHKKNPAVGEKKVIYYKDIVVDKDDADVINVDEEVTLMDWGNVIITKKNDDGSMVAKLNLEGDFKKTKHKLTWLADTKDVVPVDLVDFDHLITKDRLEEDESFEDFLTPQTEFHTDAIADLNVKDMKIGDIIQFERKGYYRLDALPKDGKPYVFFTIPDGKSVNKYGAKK

B1: aminoacylation cofactor (Arc1) (other)
chain: MSDLVTKFESLIISKYPVSFTKEQSAQAAQWESVLKSGQIQPHLDQLNLVLRDNTFIVSTLYPTSTDVHVFEVALPLIKDLVASSKDVKSTYTTYRHILRWIDYMQNLLEVSSTDKLEINHDLDLPHEVIEKKKKAPAGGAADAAAKADEDVSKKAKKQDHPRGKPDEETLKKLREEAKAKKAAKKAANAKQQQEQQNKAPEKPKPSAIDFRVGFIQKAIKHPDADSLYVSTIDVGDEEGPRTVCSGLVKHFPLDAMQERYVVVVCNLKPVNMRGIKSTAMVLCGSNDDKVEFVEPPKDSKAGDKVFFEGFGDEAPMKQLNPKKKIWEHLQPHFTTNDGLEVIFKDEEEKDHPVRKLTNAKGESFKVASIANAQVR
notes: Component of the purified AME complex; also called YGL105W
B1: binds [1]; binds [2].
